The results in this text go back to paper doi:10.1101/2020.10.30.362368 (bioRxiv, 2020).

One data set addresses T1, SmcR WT (Vibrio vulnificus, UniProt Q9L8G8 1-205).
T1 sequence: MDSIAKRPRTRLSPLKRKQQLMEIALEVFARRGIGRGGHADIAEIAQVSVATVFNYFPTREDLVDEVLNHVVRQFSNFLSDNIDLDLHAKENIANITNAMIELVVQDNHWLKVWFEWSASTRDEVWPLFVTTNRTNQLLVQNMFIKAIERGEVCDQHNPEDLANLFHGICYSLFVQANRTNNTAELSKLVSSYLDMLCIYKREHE
As to the kind of experiment: EMSA. In general terms: A gel shift assay detects complexes by their altered migration in electrophoresis.

Data set [1] addresses V. harveyi His-RNAP alpha (RNA polymerase alpha subunit) (Vibrio harveyi, UniProt A0A0B4IMU9 1-330). As to the kind of experiment: BLI. For orientation: BLI is a label-free optical method that tracks binding on a fibre tip over time.
Another data set concerns the target T2, SmcR N55I (Vibrio vulnificus, UniProt Q9L8G8 1-205, N55I).
T2 sequence: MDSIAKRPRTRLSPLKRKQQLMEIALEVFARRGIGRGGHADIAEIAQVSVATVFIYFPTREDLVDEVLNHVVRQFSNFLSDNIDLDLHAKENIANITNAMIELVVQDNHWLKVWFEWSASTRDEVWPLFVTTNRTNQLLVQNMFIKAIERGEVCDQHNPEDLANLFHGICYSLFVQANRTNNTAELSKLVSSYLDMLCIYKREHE
As to the kind of experiment: EMSA.

B1: PluxC site E (site D mutated) (dsDNA)
DNA 1: TTTGTTAAATGTTGCGCGTAATTATAAATAAATCAAACTATAATTAGATT
DNA 2: AATCTAATTATAGTTTGATTTATTTATAATTACGCGCAACATTTAACAAA
Consider B1, for which the binding result with SmcR WT is on record as “binds”.

B2: PluxC site D (site E mutated) (dsDNA)
DNA 1: TTTGTTAAATGTTATGACTAATTATAAATAAATCAAACGCGCGTTAGATT
DNA 2: AATCTAACGCGCGTTTGATTTATTTATAATTAGTCATAACATTTAACAAA
On to B2, for which the binding result with SmcR WT is “binds”.

B3: SmcR wild-type, untagged (Vibrio vulnificus quorum-sensing transcription factor) (natural protein)
chain: MDSIAKRPRTRLSPLKRKQQLMEIALEVFARRGIGRGGHADIAEIAQVSVATVFNYFPTREDLVDEVLNHVVRQFSNFLSDNIDLDLHAKENIANITNAMIELVVQDNHWLKVWFEWSASTRDEVWPLFVTTNRTNQLLVQNMFIKAIERGEVCDQHNPEDLANLFHGICYSLFVQANRTNNTAELSKLVSSYLDMLCIYKREHE
Usually Kd stands for a measure of binding affinity in units of concentration. High values mean a looser complex, low ones a tighter complex. In data set [1], B3 returned a Kd of 142 nM.

B4: SmcR N55I, untagged (natural protein)
chain: MDSIAKRPRTRLSPLKRKQQLMEIALEVFARRGIGRGGHADIAEIAQVSVATVFIYFPTREDLVDEVLNHVVRQFSNFLSDNIDLDLHAKENIANITNAMIELVVQDNHWLKVWFEWSASTRDEVWPLFVTTNRTNQLLVQNMFIKAIERGEVCDQHNPEDLANLFHGICYSLFVQANRTNNTAELSKLVSSYLDMLCIYKREHE
Molecule B4 returned a Kd in data set [1] of 160 nM.

B5: PluxC site B (JDN55/JDN54) (dsDNA)
DNA 1: TTACTTATTTATAGTGTTACAAATAACATTA
DNA 2: TAATGTTATTTGTAACACTATAAATAAGTAA
As to B5, the binding result with SmcR WT and in the data set with SmcR N55I was “binds” throughout.
